Source: US20230331823A1 (HENRY M JACKSON FOUNDATION FOR THE ADVANCEMENT OF MILITARY …, published 2023)
Numbering of substitutions follows the chain as printed. Read-outs that look alike come from different tables or passages of the source.

B1: ShAb01H06K (ShAb01Hole-06Knob) (bispecific antibody, V domains shown)
V domain 1: ARVDQTPRSVTKETGESLTINCVLRDSNCALSSTHWYRKKSGSTNEERILQGRRYVETVNSGSKSFSLRINDLRVEDSGTYRCKVYWGNSWQDKFCPGLGSYEYGDGTAVTVNS
V domain 2: ARVDQTPRSVTKETGESLTINCVLRDASYALGSTCWYRKKSGSTNEESISKGGRYVETVNSGSKSFSLRINDLTVEDGGTYRCGVGRGLGVGCDYPLCSYSYAACGDGTAVTVNS
B2: ShAb01-Foldon (ShAb01 VNAR-KESlinker-Foldon-3c-His8-Strep) (VNAR)
VNAR: B1 V domain 1 with S114K
B3: ShAb06H02K (ShAb06Hole-02Knob) (bispecific antibody, V domains shown)
V domain 1: B1 V domain 2
V domain 2: ARVDQTPQTITKETGESLTINCVLRDSNCALASTDWYRKKSGSTNEESISKGGRYVETVNSGSKSFSLRINDLTVEDSGTYRCNAWDSWETRQLKCDYDVYGGGTVVTVNS
B4: ShAb31 (MoB5-1D4) single domain VNAR (VNAR)
VNAR: ARVDQTPQTITKETGESLTINCVLRDSNCGVASTDWYRKKSGSTNEESISKGGRYVETVNSRSKSFSLRINDLTVEDSGTYRCNAWDRWETRQLNCDYDVYGGGTVVTVN
B5: ShAb02-Foldon (ShAb02 VNAR-KESlinker-Foldon-3c-His8-Strep) (VNAR)
VNAR: B3 V domain 2 with S111K

Legend:
SARS-CoV-2 NTD WA-1 = target: T1, SARS-CoV-2 NTD WA-1 (SARS-CoV-2, UniProt P0DTC2 14-303); assay: BLI, ShAb-Fc on AHC probe, NTD analyte
T1 construct: domain: NTD

[1] = target: T2, SARS-CoV-2 WA-1 Spike on pseudovirions (SARS-CoV-2, UniProt P0DTC2 14-1255); assay: cell-based or functional assay
[2] = target: T2, SARS-CoV-2 WA-1 Spike on pseudovirions; assay: cell-based or functional assay; remark: listed apart in the source
[3] = target: SARS-CoV-2 RBD (pCoV08, RBD-His6) (SARS-CoV-2 (Wuhan-Hu-1), UniProt P0DTC2 331-527); assay: Table 1, column Specificity

Binder | Kd (SARS-CoV-2 NTD WA-1) [nM] | pseudovirus neutralization IC50 [1] [µg/mL] | pseudovirus neutralization IC80 [1] [µg/mL] | pseudovirus neutralization IC50 [2] [µg/mL] | koff (SARS-CoV-2 NTD WA-1) [s⁻¹] | kon (SARS-CoV-2 NTD WA-1) [M⁻¹ s⁻¹] | binding result [3]
B1 | 104 | 0.065 | 0.763 | – | – | – | –
B2 | – | 0.309 | 0.488 | 0.31 | – | – | –
B3 | 74.6 | 0.03 | 0.206 | – | 0.0085 | 114000 | –
B4 | – | – | – | – | – | – | binds
B5 | – | 0.289 | 1.77 | < 0.02 | – | – | –
